Assays:
[1] = target: T1, human FAP on HEK293-hFAP cells (human, UniProt Q12884 1-760); assay: flow cytometry on HEK293-hFAP cells, 1 ug protein per 1x10^5 cells, anti-human IgG detection (axis TMEkine-PE)
T1 construct: whole, on cells; also called human FAP-expressing cell line
T1 sequence (looked up): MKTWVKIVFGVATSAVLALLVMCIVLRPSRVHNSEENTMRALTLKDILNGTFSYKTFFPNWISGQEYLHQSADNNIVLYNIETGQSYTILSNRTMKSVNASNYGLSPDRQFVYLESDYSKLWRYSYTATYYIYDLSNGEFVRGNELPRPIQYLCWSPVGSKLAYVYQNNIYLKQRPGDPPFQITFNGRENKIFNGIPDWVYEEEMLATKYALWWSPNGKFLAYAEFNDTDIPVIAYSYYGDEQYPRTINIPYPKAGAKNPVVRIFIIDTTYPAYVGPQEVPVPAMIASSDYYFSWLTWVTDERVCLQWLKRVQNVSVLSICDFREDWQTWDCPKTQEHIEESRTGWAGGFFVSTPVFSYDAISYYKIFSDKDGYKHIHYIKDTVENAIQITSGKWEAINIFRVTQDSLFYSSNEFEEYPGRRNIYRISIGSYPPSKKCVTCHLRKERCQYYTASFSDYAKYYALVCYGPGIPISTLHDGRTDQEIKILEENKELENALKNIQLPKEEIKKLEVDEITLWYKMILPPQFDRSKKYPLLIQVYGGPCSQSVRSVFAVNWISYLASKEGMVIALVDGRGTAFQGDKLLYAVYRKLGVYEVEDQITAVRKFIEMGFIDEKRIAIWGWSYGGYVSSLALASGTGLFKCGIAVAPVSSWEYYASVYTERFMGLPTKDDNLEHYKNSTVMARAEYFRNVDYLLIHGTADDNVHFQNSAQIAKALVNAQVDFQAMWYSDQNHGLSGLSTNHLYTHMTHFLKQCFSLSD
Experimental: (§1) Specifically, the cell line was prepared by suspending in a FACS buffer solution at 1×10⁵ cells/100 μL, and treated with 1 μg each of T3.10, T3.01, T3.05, T3.06, T3.14, and T3.18. The cells were washed twice with a FACS buffer solution. The cells were stained with an anti-human IgG antibody (Biolegend). The negative control sample was stained only with an anti-human IgG antibody (Biolegend). The expression ratio of the stained cells was measured using BD LSR and analyzed using FlowJo software.

recombinant human FAP = target: T2, recombinant human FAP (human, UniProt Q12884 26-760); assay: SPR, fusion protein captured by anti-human IgG (Fc) on CM5, recombinant human FAP as analyte, 1:1 binding model
T2 construct: also called rhFAP
T2 sequence (looked up): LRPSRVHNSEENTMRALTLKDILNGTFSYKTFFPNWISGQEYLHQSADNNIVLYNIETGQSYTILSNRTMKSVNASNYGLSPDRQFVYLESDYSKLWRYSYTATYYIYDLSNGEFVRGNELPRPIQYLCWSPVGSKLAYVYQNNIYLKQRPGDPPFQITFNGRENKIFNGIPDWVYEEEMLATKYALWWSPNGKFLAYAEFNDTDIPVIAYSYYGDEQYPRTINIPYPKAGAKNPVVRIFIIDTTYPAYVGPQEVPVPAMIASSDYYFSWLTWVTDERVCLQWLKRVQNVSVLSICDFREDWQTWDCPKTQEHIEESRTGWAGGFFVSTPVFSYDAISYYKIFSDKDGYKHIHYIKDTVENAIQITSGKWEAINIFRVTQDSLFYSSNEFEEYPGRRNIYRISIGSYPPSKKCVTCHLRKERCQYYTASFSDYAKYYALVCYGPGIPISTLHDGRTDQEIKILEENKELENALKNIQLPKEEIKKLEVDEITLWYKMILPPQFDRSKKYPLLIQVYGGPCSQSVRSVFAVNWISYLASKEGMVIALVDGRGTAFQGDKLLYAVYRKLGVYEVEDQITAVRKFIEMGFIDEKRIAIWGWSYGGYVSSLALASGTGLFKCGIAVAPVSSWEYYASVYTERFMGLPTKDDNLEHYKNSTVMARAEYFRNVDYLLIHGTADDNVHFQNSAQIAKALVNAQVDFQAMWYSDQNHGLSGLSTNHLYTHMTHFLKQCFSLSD
Experimental: Specifically, the surface of the CM5 chip was activated with a 1:1 mixture of […] NHS (N-hydroxysuccinimide) and 200 nM EDC (1-ethyl-3-(3-dimethylaminopropyl)carbodiimide), and 20 μg/mL of anti-human IgG (Fc) antibody was immobilized for 400 seconds at a rate of 10 μL/min. The remaining active ester groups were blocked with 1 M ethanolamine. T3.01, T3.07, and T3.14 were diluted to 2 μg/mL, 1 μg/mL, and 2 μg/mL, respectively, and reacted on the CM5 chip immobilized with the anti-human IgG (Fc) antibody. The recombinant human FAP was diluted to 50 nM or 100 nM in 1×HBS-EP+buffer solution and diluted by serial dilution. The diluted recombinant human FAP was reacted at a rate of 30 μL/min. The association and dissociation times were 180 seconds and 400 seconds, respectively. After the dissociation step, stabilization was performed for 60 seconds, and then the regeneration step was performed for 30 seconds with a 10 mM glycine pH 1.5 solution at a rate of 30 μL/min.

[2] = target: T3, recombinant human lymphotoxin beta receptor (LTβR) (human, UniProt P36941 28-227, limits assumed); assay: SPR, human LTβR immobilised on CM5, fusion protein as analyte, 1:1 binding model
T3 construct: neither construct is described; also called human LTβR; recombinant human LTβR protein
T3 sequence (P36941 28-227 limits assumed): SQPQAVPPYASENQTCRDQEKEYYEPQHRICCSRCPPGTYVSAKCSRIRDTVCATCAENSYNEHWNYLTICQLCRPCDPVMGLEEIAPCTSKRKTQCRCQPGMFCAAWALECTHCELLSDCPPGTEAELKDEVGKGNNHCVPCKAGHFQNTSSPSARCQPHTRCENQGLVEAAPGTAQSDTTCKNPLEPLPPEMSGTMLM
Experimental: Specifically, the surface of the CM5 chip was activated with a 1:1 mixture of […], and 5 μg/mL of human LTβR was immobilized for 60 seconds at a rate of 10 μL/min. The remaining active ester groups were blocked with 1 M ethanolamine. […] The diluted fusion proteins were reacted at a rate of 30 μL/min. The association and dissociation times were 180 seconds and 400 seconds, respectively. After the dissociation step, stabilization was performed for 60 seconds, and then the regeneration step was performed for 30 seconds with a 10 mM glycine pH 1.5 solution at a rate of 30 μL/min.

[3] = target: T1, human FAP on HEK293-hFAP cells; assay: flow cytometry on HEK293-hFAP cells, 1 µg protein, anti-human IgG detection
Experimental: as §1

B1: T3.01 (anti-hu FAP/hu scLIGHT3, hu IgG1 DANG) (bispecific antibody)
heavy: QVQLVQSGAEVKKPGASVKVSCKTSRYTFTEYTIHWVRQAPGQRLEWIGGINPNNGIPNYNQKFKGRVTITVDTSASTAYMELSSLRSEDTAVYYCARRRIAYGYDEGHAMDYWGQGTLVTVSSASTKGPSVFPLAPSSKSTSGGTAALGCLVKDYFPEPVTVSWNSGALTSGVHTFPAVLQSSGLYSLSSVVTVPSSSLGTQTYICNVNHKPSNTKVDKKVEPKSCDKTHTCPPCPAPELLGGPSVFLFPPKPKDTLMISRTPEVTCVVVAVSHEDPEVKFNWYVDGVEVHNAKTKPREEQYGSTYRVVSVLTVLHQDWLNGKEYKCKVSNKALPAPIEKTISKAKGQPREPQVYTLPPSRDELTKNQVSLWCLVKGFYPSDIAVEWESNGQPENNYKTTPPVLDSDGSFFLYSKLTVDKSRWQQGNVFSCSVMHEALHNHYTQKSLSLSPGK
light: not shown
chain: not shown
notes: Knob-into-hole heterodimer: one anti-FAP Fab arm and one single-chain human LIGHT (91-240) homotrimer arm
- percent of cells in the positive gate [1]: 99.5%
- Kd (recombinant human FAP): 0.0364 nM
- koff (recombinant human FAP): 3.89e-06 s⁻¹
- kon (recombinant human FAP): 107000 M⁻¹ s⁻¹
- Kd [2]: 0.928 nM
- koff [2]: 0.000321 s⁻¹
- kon [2]: 346000 M⁻¹ s⁻¹
- percent of cells bound [3]: ≥ 99%

B2: T3.14 (anti-hu FAP/hu scLIGHT-LTb2, hu IgG1 DANG) (bispecific antibody)
heavy: B1 heavy
light: not shown
chain: not shown
notes: Knob-into-hole; single-chain heterotrimer of one human LIGHT and two human lymphotoxin beta (87-243)
- percent of cells in the positive gate [1]: 99.9%
- Kd (recombinant human FAP): 0.0123 nM
- koff (recombinant human FAP): 1.53e-06 s⁻¹
- kon (recombinant human FAP): 124000 M⁻¹ s⁻¹
- Kd [2]: 0.29 nM
- koff [2]: 0.000434 s⁻¹
- kon [2]: 1.5e+06 M⁻¹ s⁻¹
- percent of cells bound [3]: ≥ 99%

Source: US20250368754A1 (KANAPH THERAPEUTICS, published 2025)
